For orientation: Kd means the concentration at which binding is half-saturated.

In article doi:10.1101/2025.03.12.642038, “Structural, biophysical and biological analysis and characterisation of IRF4 DNA-binding domain mutations associated with multiple myeloma” one finds Kd data, which are given here for one molecule.

What all share (assay): SPR steady state; FP: PBS + 0.05% Tween20, 5 nM DNA, 1 h, room temperature; SPR: Biacore S200, SA chip, protein 0.1-4500 nM, running buffer not given in material; errors are SD
What all share (conditions): protein: recombinant; tags: N-terminal His8-linker-His8-TEV, cleaved; label: 3' biotin; hairpin, TTTT loop

In one series the target is T1, IRF4 DBD C99A (Homo sapiens, UniProt Q15306 20-132, C99A).
T1 sequence: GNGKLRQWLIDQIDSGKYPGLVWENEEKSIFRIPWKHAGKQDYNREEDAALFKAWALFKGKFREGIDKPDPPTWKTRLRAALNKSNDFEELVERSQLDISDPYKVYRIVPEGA

A further series has as its target T2, IRF4 DBD S114N (Homo sapiens, UniProt Q15306 20-132, S114N).
T2 sequence: T1 sequence with A80C, S95N

For another series, the target named is T3, IRF4 DBD L70V (Homo sapiens, UniProt Q15306 20-132, L70V).
T3 sequence: T1 sequence with L51V, A80C

A further series deals with T4, IRF4 DBD D106Y (Homo sapiens, UniProt Q15306 20-132, D106Y).
T4 sequence: T1 sequence with A80C, D87Y

The next series deals with T5, IRF4 DBD T95K (Homo sapiens, UniProt Q15306 20-132, T95K).
T5 sequence: T1 sequence with T76K, A80C

Another series addresses T6, IRF4 DBD D117H (Homo sapiens, UniProt Q15306 20-132, D117H).
T6 sequence: T1 sequence with A80C, D98H

The target of another series is T7, IRF4 DBD T95A (Homo sapiens, UniProt Q15306 20-132, T95A).
T7 sequence: T1 sequence with T76A, A80C

For the next series, the target named is T8, IRF4 DBD wild-type (Homo sapiens, UniProt Q15306 20-132).
T8 sequence: T1 sequence with A80C

The target in a further series is T9, IRF4 DBD K123R (Homo sapiens, UniProt Q15306 20-132, K123R).
T9 sequence: T1 sequence with A80C, K104R

Another series concerns the target T10, IRF4 DBD C99R (Homo sapiens, UniProt Q15306 20-132, C99R).
T10 sequence: T1 sequence with A80R

Changes are numbered by the printed parent chain.

As to CTTGGTTTCACTTCCTGCGTTTTCGCAGGAAGTGAAACCAAG (structured_DNA) [IRE hairpin (biotin)], the Kd with IRF4 DBD C99A amounted to 0.173 ± 0.06 µM; in the series with IRF4 DBD S114N, 0.291 ± 0.079 µM; with IRF4 DBD L70V it was 0.167 ± 0.082 µM; with IRF4 DBD D106Y, 0.178 ± 0.043 µM; with IRF4 DBD T95K, 0.594 ± 0.251 µM; with IRF4 DBD D117H it was 0.247 ± 0.084 µM. The Kd with IRF4 DBD T95A was determined as 0.186 ± 0.082 µM; with IRF4 DBD wild-type, 0.402 ± 0.165 µM; with IRF4 DBD K123R, 0.491 ± 0.048 µM; with IRF4 DBD C99R, 0.546 ± 0.174 µM.
